Experimental data published in patent US20060263802A1 (CRUCELL HOLLAND B V, published 2006).

Assays:
Experiment in all cases: PEPSCAN ELISA, looped peptide, 10 ug/ml
[1] = target: looped/cyclic peptide … (rabies virus strain ERA)
[2] = target: looped/cyclic peptide … (rabies virus strain ERA); remark: listed apart in the source
[3] = target: looped/cyclic peptide … (rabies virus strain ERA); remark: listed apart in the source
[4] = target: looped/cyclic peptide … (rabies virus strain ERA); remark: listed apart in the source
[5] = target: looped/cyclic peptide … (rabies virus strain ERA); remark: listed apart in the source
[6] = target: looped/cyclic peptide … (rabies virus strain ERA); remark: listed apart in the source
[7] = target: looped/cyclic peptide … (rabies virus strain ERA); remark: listed apart in the source
[8] = target: looped/cyclic peptide … (rabies virus strain ERA); remark: listed apart in the source
[9] = target: looped/cyclic peptide … (rabies virus strain ERA); remark: listed apart in the source
[10] = target: looped/cyclic peptide … (rabies virus strain ERA); remark: listed apart in the source
[11] = target: looped/cyclic peptide … (rabies virus strain ERA); remark: listed apart in the source
[12] = target: looped/cyclic peptide … (rabies virus strain ERA); remark: listed apart in the source
[13] = target: looped/cyclic peptide … (rabies virus strain ERA); remark: listed apart in the source
[14] = target: looped/cyclic peptide … (rabies virus strain ERA); remark: listed apart in the source
[15] = target: looped/cyclic peptide … (rabies virus strain ERA); remark: listed apart in the source
[16] = target: looped/cyclic peptide … (rabies virus strain ERA); remark: listed apart in the source
[17] = target: looped/cyclic peptide … (rabies virus strain ERA); remark: listed apart in the source
[18] = target: looped/cyclic peptide … (rabies virus strain ERA); remark: listed apart in the source
[19] = target: looped/cyclic peptide … (rabies virus strain ERA); remark: listed apart in the source
[20] = target: looped/cyclic peptide … (rabies virus strain ERA); remark: listed apart in the source
[21] = target: looped/cyclic peptide … (rabies virus strain ERA); remark: listed apart in the source
[22] = target: looped/cyclic peptide … (rabies virus strain ERA); remark: listed apart in the source
[23] = target: looped/cyclic peptide … (rabies virus strain ERA); remark: listed apart in the source
[24] = target: looped/cyclic peptide … (rabies virus strain ERA); remark: listed apart in the source
[25] = target: looped/cyclic peptide … (rabies virus strain ERA); remark: listed apart in the source
[26] = target: looped/cyclic peptide … (rabies virus strain ERA); remark: listed apart in the source
[27] = target: looped/cyclic peptide … (rabies virus strain ERA); remark: listed apart in the source
[28] = target: looped/cyclic peptide … (rabies virus strain ERA); remark: listed apart in the source
[29] = target: looped/cyclic peptide … (rabies virus strain ERA); remark: listed apart in the source
[30] = target: looped/cyclic peptide … (rabies virus strain ERA); remark: listed apart in the source
[31] = target: looped/cyclic peptide … (rabies virus strain ERA); remark: listed apart in the source
[32] = target: looped/cyclic peptide … (rabies virus strain ERA); remark: listed apart in the source
[33] = target: looped/cyclic peptide … (rabies virus strain ERA); remark: listed apart in the source
[34] = target: looped/cyclic peptide … (rabies virus strain ERA); remark: listed apart in the source
[35] = target: looped/cyclic peptide … (rabies virus strain ERA); remark: listed apart in the source
[36] = target: looped/cyclic peptide … (rabies virus strain ERA); remark: listed apart in the source
[37] = target: looped/cyclic peptide … (rabies virus strain ERA); remark: listed apart in the source
[38] = target: looped/cyclic peptide … (rabies virus strain ERA); remark: listed apart in the source
[39] = target: looped/cyclic peptide … (rabies virus strain ERA); remark: listed apart in the source
[40] = target: looped/cyclic peptide … (rabies virus strain ERA); remark: listed apart in the source
[41] = target: looped/cyclic peptide … (rabies virus strain ERA); remark: listed apart in the source
[42] = target: looped/cyclic peptide … (rabies virus strain ERA); remark: listed apart in the source
[43] = target: looped/cyclic peptide … (rabies virus strain ERA); remark: listed apart in the source
[44] = target: looped/cyclic peptide … (rabies virus strain ERA); remark: listed apart in the source
[45] = target: looped/cyclic peptide … (rabies virus strain ERA); remark: listed apart in the source
[46] = target: looped/cyclic peptide … (rabies virus strain ERA); remark: listed apart in the source
[47] = target: looped/cyclic peptide … (rabies virus strain ERA); remark: listed apart in the source
[48] = target: looped/cyclic peptide … (rabies virus strain ERA); remark: listed apart in the source
[49] = target: looped/cyclic peptide … (rabies virus strain ERA); remark: listed apart in the source
[50] = target: looped/cyclic peptide … (rabies virus strain ERA); remark: listed apart in the source
[51] = target: looped/cyclic peptide … (rabies virus strain ERA); remark: listed apart in the source
[52] = target: looped/cyclic peptide … (rabies virus strain ERA); remark: listed apart in the source
[53] = target: looped/cyclic peptide … (rabies virus strain ERA); remark: listed apart in the source
[54] = target: looped/cyclic peptide … (rabies virus strain ERA); remark: listed apart in the source
[55] = target: looped/cyclic peptide … (rabies virus strain ERA); remark: listed apart in the source
[56] = target: looped/cyclic peptide … (rabies virus strain ERA); remark: listed apart in the source
[57] = target: looped/cyclic peptide … (rabies virus strain ERA); remark: listed apart in the source
[58] = target: looped/cyclic peptide … (rabies virus strain ERA); remark: listed apart in the source
[59] = target: looped/cyclic peptide … (rabies virus strain ERA); remark: listed apart in the source
[60] = target: looped/cyclic peptide … (rabies virus strain ERA); remark: listed apart in the source
[61] = target: looped/cyclic peptide … (rabies virus strain ERA); remark: listed apart in the source

B1: human monoclonal antibody CRJB (antibody, V domains shown)
VH: QITLKETGPTLVKPTQTLTLTCTFSGFSLSTSGVGVGWIRQPPGKALEWVTLIYWDDDKRYSPSLENRVTIRKDTSKNQVALTMTNMDPLDTGTYYCAHRQHISSFPWFDSWGQGTLVTVSS
VL: SYVLTQPPSVSVAPGKTARINCGGNNIEYRSVHWYQQKSGQAPVAVIYDNSDRPSGIPERFSGSKSGNTATLTISRVEAGDEADYYCQVWDISSDVVFGGGTKLTVLG
[1]
  OD: 105 OD
[2]
  OD: 79 OD
[3]
  OD: 93 OD
[4]
  OD: 102 OD
[5]
  OD: 101 OD
[6]
  OD: 76 OD
[7]
  OD: 83 OD
[8]
  OD: 90 OD
[9]
  OD: 89 OD
[10]
  OD: 80 OD
[11]
  OD: 101 OD
[12]
  OD: 134 OD
[13]
  OD: 97 OD
[14]
  OD: 42 OD
[15]
  OD: 86 OD
[16]
  OD: 90 OD
[17]
  OD: 104 OD
[18]
  OD: 86 OD
[19]
  OD: 93 OD
[20]
  OD: 93 OD
[21]
  OD: 98 OD
[22]
  OD: 90 OD
[23]
  OD: 85 OD
[24]
  OD: 110 OD
[25]
  OD: 76 OD
[26]
  OD: 92 OD
[27]
  OD: 99 OD
[28]
  OD: 82 OD
[29]
  OD: 100 OD
[30]
  OD: 85 OD
[31]
  OD: 104 OD
[32]
  OD: 129 OD
[33]
  OD: 99 OD
[34]
  OD: 72 OD
[35]
  OD: 105 OD
[36]
  OD: 90 OD
[37]
  OD: 97 OD
[38]
  OD: 118 OD
[39]
  OD: 129 OD
[40]
  OD: 108 OD
[41]
  OD: 85 OD
[42]
  OD: 116 OD
[43]
  OD: 87 OD
[44]
  OD: 83 OD
[45]
  OD: 83 OD
[46]
  OD: 100 OD
[47]
  OD: 64 OD
[48]
  OD: 92 OD
[49]
  OD: 93 OD
[50]
  OD: 85 OD
[51]
  OD: 104 OD
[52]
  OD: 97 OD
[53]
  OD: 80 OD
[54]
  OD: 85 OD
[55]
  OD: 96 OD
[56]
  OD: 106 OD
[57]
  OD: 92 OD
[58]
  OD: 111 OD
[59]
  OD: 100 OD
[60]
  OD: 79 OD
[61]
  OD: 97 OD
